The results in this text go back to article PMC11770034, “Characterization of the oxygen-tolerant formate dehydrogenase from Clostridium carboxidivorans” (Frontiers in Microbiology, 2025).

For the series, the system named is T1, NC(=O)C1=CN([C@@H]2O[C@H](COP(=O)(O)OP(=O)(O)OC[C@H]3O[C@@H](n4cnc5c(N)ncnc54)[C@H](O)[C@@H]3O)[C@@H](O)[C@H]2O)C=CC1.
T1 construct: Mo form
The experiment in a line: purified protein. The note with it: 100 mM sodium bicarbonate, 50 mM Bis-Tris pH 6.8, 30 °C, oxic, Mo-loaded enzyme, part of preparation may be inactive. The series is classed as biochemical, Clostridium carboxidivorans.

Turning to “ccFDH (Mo-ccFDH) (Clostridium carboxidivorans P7; U139C)”, the Km was 60 ± 7 µM, the Vmax came out at 5.83 µmol/min, the kcat was found to be 0.02 ± 0.0008 s⁻¹ and the kcat/Km came to 310 ± 84 M⁻¹ s⁻¹.
